According to patent CN114874324A (dated 2022):

Experiments:
[1] = target: T1, 可溶性LAG-3蛋白标准品(R&D Systems) (human, UniProt P18627 23-450, limits assumed); assay: sandwich ELISA, wells pre-coated with 4E12
T1 construct: also called sLAG-3蛋白; sLAG-3
T1 sequence (looked up): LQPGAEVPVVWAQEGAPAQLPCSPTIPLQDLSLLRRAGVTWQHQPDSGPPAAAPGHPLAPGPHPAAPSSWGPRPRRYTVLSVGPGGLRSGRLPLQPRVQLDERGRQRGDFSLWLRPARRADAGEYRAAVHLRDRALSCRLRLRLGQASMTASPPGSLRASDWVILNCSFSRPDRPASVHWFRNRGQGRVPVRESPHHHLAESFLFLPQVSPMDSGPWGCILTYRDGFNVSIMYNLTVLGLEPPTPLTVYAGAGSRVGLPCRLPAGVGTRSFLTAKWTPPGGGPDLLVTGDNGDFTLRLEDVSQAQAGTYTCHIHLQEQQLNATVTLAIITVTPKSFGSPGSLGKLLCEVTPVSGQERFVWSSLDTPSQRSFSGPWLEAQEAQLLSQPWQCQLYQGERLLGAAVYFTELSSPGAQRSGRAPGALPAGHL

[2] = target: T1, 可溶性LAG-3蛋白标准品(R&D Systems); assay: sandwich ELISA of the kit (4F4 and 4E12 as the antibody pair)

B1: LAG-3-4E12抗体 (antibody, V domains shown)
VH: EVKLVESGGGLVQPGGSLKLSCAVSGFAIRSYDMSWVRQTPEKRLEWVATISSGGSYSYYPDSVKGRFTISRDNARNTLYLQMSSLRSEDTALYYCASLSTAPAYWGQGTLVTVSA
VL: DIVMTQSQKFMSTSVGDRVSVTCKASQNVGTNVAWYQQKPGQSPKALIYSASYRYSGVPDRFTGSGSGTDFTLTISNVQSEDLAEYFCQQYNTYPHMYTFGGGTKLEIK
notes: Mouse (BALB/c) hybridoma monoclonal antibody; also called LAG-3-4E12单克隆抗体; 抗LAG-3单抗(克隆:4E12)
Q: Does B1 bind [1]?
A: binds

B2: LAG-3-4F4抗体 (antibody, V domains shown)
VH: QLQLKESGPEVVRPGVSVKISCKGSGYTFTDYAMYWVKQSHAKSLEWIGVISTYNGNTNYNQRFKGKATMTVDKSSSTAYMELARLTSEDSAIYYCARERGAMDYWGQGTSVTVSS
VL: DVLMTQTPLSLPVSLGDQASISCRSSQSIVHNNGNTYLEWYLQKPGQSPKLLIYKVSSRFSGVPDRFSGSGSGTDFTLKISRVEAEDLGIYYCFQGSHVPPTFGGGTKLEIK
notes: Mouse (BALB/c) hybridoma monoclonal antibody; also called 抗人LAG-3-4F4单克隆抗体; LAG-3包被抗体
Q: Does B2 bind [2]?
A: binds
